Laboratory results: patent publication US10712339B2, “Engineering of a novel breast tumor microenvironment on a microfluidic chip” (Arizona Board of Regents on behalf of Arizona State …, priority 2014, dated 2020)

Tested on: SUM-159 breast cancer cells
Assay: Chemoinvasion of breast cancer cells in the microfluidic platform
Type: cell-based
Description: We encapsulated highly invasive SUM-159 breast cancer cells within our platform. Cells were encapsulated in a mixture of Collagen:Matrigel at a ratio of 1:1 (final collagen density is 1 mg/mL) and the solution was injected into the tumor region while cell-free collagen type I (2 mg/mL) was injected into the stromal region. In one platform, 50 ng/mL of epidermal growth factor (EGF) was injected to the side channels to stimulate chemoinvasion, while in a control platform, no EGF was injected. We observed the migration of the cells throughout the stromal region over the course of four days in both conditions.
There was noticeable collagen deformation showing that the cells are actively sensing their biophysical environment and reacting to it. […] Cells without EGF stimulation did invade as well but not by the same distance.

[1] = 50 ng/mL EGF vs -EGF control, day 4

B1: EGF: epidermal growth factor injected to the side channels to stimulate chemoinvasion (protein, UniProt P01133 23-1207, looked up)
Pro-epidermal growth factor: PQHWSCPEGTLAGNGNSTCVGPAPFLIFSHGNSIFRIDTEGTNYEQLVVDAGVSVIMDFHYNEKRIYWVDLERQLLQRVFLNGSRQERVCNIEKNVSGMAINWINEEVIWSNQQEGIITVTDMKGNNSHILLSALKYPANVAVDPVERFIFWSSEVAGSLYRADLDGVGVKALLETSEKITAVSLDVLDKRLFWIQYNREGSNSLICSCDYDGGSVHISKHPTQHNLFAMSLFGDRIFYSTWKMKTIWIANKHTGKDMVRINLHSSFVPLGELKVVHPLAQPKAEDDTWEPEQKLCKLRKGNCSSTVCGQDLQSHLCMCAEGYALSRDRKYCEDVNECAFWNHGCTLGCKNTPGSYYCTCPVGFVLLPDGKRCHQLVSCPRNVSECSHDCVLTSEGPLCFCPEGSVLERDGKTCSGCSSPDNGGCSQLCVPLSPVSWECDCFPGYDLQLDEKSCAASGPQPFLLFANSQDIRHMHFDGTDYGTLLSQQMGMVYALDHDPVENKIYFAHTALKWIERANMDGSQRERLIEEGVDVPEGLAVDWIGRRFYWTDRGKSLIGRSDLNGKRSKIITKENISQPRGIAVHPMAKRLFWTDTGINPRIESSSLQGLGRLVIASSDLIWPSGITIDFLTDKLYWCDAKQSVIEMANLDGSKRRRLTQNDVGHPFAVAVFEDYVWFSDWAMPSVMRVNKRTGKDRVRLQGSMLKPSSLVVVHPLAKPGADPCLYQNGGCEHICKKRLGTAWCSCREGFMKASDGKTCLALDGHQLLAGGEVDLKNQVTPLDILSKTRVSEDNITESQHMLVAEIMVSDQDDCAPVGCSMYARCISEGEDATCQCLKGFAGDGKLCSDIDECEMGVPVCPPASSKCINTEGGYVCRCSEGYQGDGIHCLDIDECQLGEHSCGENASCTNTEGGYTCMCAGRLSEPGLICPDSTPPPHLREDDHHYSVRNSDSECPLSHDGYCLHDGVCMYIEALDKYACNCVVGYIGERCQYRDLKWWELRHAGHGQQQKVIVVAVCVVVLVMLLLLSLWGAHYYRTQKLLSKNPKNPYEESSRDVRSRRPADTEDGMSSCPQPWFVVIKEHQDLKNGGQPVAGEDGQAADGSMQPTSWRQEPQLCGMGTEQGCWIPVSSDKGSCPQVMERSFHMPSYGTQTLEGGVEKPHSLLSANPLWQQRALDPPHQMELTQ
modifications: Pro-epidermal growth factor
notes: epidermal growth factor injected to the side channels to stimulate chemoinvasion
invasion distance into the stromal region (50 ng/mL EGF in side channels vs -EGF control, by day 3): invaded further
cell count as a function of migration distance [1]: more cells had migrated a greater distance
number of cells in the media channels [1]: a higher number of cells were seen in the channels
